From patent US20140271603

Assays:
[1] = biological target: T1, recombinant human factor H, Y402 variant, produced in the PER.C6 cell line
T1 chain: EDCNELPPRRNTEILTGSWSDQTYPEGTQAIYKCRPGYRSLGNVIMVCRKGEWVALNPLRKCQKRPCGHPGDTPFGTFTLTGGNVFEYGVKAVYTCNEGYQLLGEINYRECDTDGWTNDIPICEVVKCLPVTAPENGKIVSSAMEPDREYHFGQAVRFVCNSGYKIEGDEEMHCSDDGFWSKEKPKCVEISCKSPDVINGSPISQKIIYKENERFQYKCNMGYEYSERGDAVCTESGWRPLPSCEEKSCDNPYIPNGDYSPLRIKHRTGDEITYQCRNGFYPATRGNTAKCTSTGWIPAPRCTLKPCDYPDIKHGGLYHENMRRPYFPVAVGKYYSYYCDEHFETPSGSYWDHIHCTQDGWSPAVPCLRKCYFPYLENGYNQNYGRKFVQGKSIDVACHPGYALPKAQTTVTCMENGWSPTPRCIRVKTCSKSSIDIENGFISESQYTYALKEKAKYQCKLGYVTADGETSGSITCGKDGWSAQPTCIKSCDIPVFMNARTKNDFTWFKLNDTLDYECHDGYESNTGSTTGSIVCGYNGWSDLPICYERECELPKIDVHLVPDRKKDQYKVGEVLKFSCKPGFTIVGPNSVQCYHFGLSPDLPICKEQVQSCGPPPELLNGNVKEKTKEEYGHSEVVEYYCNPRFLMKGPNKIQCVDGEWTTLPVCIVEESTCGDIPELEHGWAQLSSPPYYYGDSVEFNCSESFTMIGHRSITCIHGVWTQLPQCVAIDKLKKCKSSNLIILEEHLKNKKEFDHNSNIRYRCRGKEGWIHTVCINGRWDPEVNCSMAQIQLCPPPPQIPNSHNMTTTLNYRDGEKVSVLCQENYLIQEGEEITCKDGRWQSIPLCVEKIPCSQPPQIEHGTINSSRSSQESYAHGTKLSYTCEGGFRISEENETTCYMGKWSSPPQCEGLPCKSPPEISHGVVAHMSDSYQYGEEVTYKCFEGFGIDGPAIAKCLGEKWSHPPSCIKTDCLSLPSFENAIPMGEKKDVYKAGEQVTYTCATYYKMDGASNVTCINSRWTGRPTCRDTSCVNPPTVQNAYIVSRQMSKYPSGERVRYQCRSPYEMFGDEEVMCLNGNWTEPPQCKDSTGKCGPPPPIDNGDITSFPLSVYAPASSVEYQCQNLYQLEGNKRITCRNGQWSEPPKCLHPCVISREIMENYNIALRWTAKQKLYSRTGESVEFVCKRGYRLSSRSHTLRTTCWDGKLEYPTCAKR

[2] = biological target: purified human plasma factor H (batch LFB), P08603
[3] = biological target: T2, recombinant human factor H, Y402 variant, produced in the HEK 293F cell line
T2 chain: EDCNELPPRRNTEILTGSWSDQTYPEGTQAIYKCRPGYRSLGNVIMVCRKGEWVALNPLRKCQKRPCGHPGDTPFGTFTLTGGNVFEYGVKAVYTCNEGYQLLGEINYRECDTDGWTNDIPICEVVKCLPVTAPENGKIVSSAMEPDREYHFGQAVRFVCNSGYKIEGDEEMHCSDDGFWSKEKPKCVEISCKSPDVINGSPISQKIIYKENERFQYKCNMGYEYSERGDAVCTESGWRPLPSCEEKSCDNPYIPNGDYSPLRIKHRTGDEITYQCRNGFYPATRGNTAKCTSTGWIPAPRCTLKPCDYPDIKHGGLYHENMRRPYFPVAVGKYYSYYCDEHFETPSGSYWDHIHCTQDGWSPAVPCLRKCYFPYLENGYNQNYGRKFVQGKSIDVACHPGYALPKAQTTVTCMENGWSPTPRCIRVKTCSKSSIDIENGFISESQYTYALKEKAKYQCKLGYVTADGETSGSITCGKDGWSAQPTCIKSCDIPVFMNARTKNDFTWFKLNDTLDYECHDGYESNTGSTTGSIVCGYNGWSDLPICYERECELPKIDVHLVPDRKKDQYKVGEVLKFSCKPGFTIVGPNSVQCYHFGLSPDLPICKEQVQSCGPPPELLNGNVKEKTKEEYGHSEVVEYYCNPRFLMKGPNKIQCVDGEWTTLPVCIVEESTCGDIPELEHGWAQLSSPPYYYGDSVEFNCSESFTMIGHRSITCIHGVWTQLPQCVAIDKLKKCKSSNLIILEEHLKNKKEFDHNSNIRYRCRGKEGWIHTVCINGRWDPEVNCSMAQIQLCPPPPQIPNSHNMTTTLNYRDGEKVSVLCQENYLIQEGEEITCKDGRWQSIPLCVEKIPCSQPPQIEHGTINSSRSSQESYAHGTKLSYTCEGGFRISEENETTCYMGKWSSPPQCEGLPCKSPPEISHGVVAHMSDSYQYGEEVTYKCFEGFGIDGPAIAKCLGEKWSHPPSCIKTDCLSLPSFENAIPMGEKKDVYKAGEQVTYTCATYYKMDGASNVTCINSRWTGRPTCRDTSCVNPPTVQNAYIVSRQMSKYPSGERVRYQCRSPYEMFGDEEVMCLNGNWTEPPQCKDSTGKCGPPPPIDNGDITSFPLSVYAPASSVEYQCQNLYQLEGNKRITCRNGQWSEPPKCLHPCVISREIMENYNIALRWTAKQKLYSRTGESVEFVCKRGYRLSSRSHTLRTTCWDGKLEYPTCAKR

B1: Factor I (protein)
chain: KVTYTSQEDLVEKKCLAKKYTHLSCDKVFCQPWQRCIEGTCVCKLPYQCPKNGTAVCATNRRSFPTYCQQKSLECLHPGTKFLNNGTCTAEGKFSVSLKHGNTDSEGIVEVKLVDQDKTMFICKSSWSMREANVACLDLGFQQGADTQRRFKLSDLSINSTECLHVHCRGLETSLAECTFTKRRTMGYQDFADVVCYTQKADSPMDDFFQCVNGKYISQMKACDGINDCGDQSDELCCKACQGKGFHCKSGVCIPSQYQCNGEVDCITGEDEVGCAGFASVTQEETEILTADMDAERRRIKSLLPKLSCGVKNRMHIRRKRIVGGKRAQLGDLPWQVAIKDASGITCGGIYIGGCWILTAAHCLRASKTHRYQIWTTVVDWIHPDLKRIVIEYVDRIIFHENYNAGTYQNDIALIEMKKDGNKKDCELPRSIPACVPWSPYLFQPNDTCIVSGWGREKDNERVFSLQWGEVKLISNCSKFYGNRFYEKEMECAGTYDGSIDACKGDSGGPLVCMDANNVTYVWGVVSWGENCGKPEFPGVYTKVANYFDWISYHVGRPFISQYNV
cofactor activity of Factor I (liquid-phase cleavage of the C3b α′ chain, SDS-PAGE) [1]: the recombinant FHs produced by the PER.C6 and HEK 293F lines have a similar cofactor activity of FI and that this activity is comparable to that of the human plasma FH | cofactor activity of Factor I (liquid-phase cleavage of the C3b α′ chain, SDS-PAGE) [2]: this activity is comparable to that of the human plasma FH | cofactor activity of Factor I (liquid-phase cleavage of the C3b α′ chain, SDS-PAGE) [3]: the recombinant FHs produced by the PER.C6 and HEK 293F lines have a similar cofactor activity of FI and that this activity is comparable to that of the human plasma FH
